The RNAGym collection of RNA variant scans (doi:10.1073/pnas.2313332121)

B1: TPR t1 (parent)
chain: GACCAAUCUGCCCUCAGAGCUCGAGAACAUCUUCGGAUGCAGAGGAGGCAGGCUUCGGUGGCGCGAUAGCGCCAACGUCCUCAACCUCCAAUGCAUCCCACCACAUGAUGAUGCCUGAAGAGCCUUGGUUUUUUG

Variants of: B1
Test: polymerase ribozyme fitness, log enrichment relative to wild type (log ratio); higher = more active; in vitro selection for triplet polymerase activity
Method in brief: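 Streptavidin-bead capture of gel-excised extended constructs, followed by RT-PCR, closed a single triplicate in vitro selection round. That round began by annealing PCR-built, transcribed mutant libraries of each subunit of a heterodimeric triplet polymerase ribozyme with a biotinylated primer, the partner subunit and triplets, then incubating them frozen at −7 °C. After Illumina sequencing of inputs and outputs, genotypes needed ≥10 input reads and ≥1 read per output. Fitness is the base-2 logarithm of genotype enrichment over wild-type enrichment, using inverse-variance-weighted replicate averages.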

| Variant | polymerase ribozyme fitness (log ratio) |
| --- | --- |
| GACCAAUGUGCCCUCAGAGCUCGAGAACAUCUUCGGAUGCAUAGAAGGCAGGCUUUGGUGGCGCGAUAGCGCCAACGUCCUCAACCUCCAAUGCAUCCCACCACAUGAUGAUGCCUGAAGAGCCUUGGUUUUUUG [C8G G42U G45A C56U] | -0.791 |
| GACCAAUCUGCUCUCAGAGCUCGAGAACAUCUUCGGAUGCAGAGGAGGCAGGCUUCAGUGGCACGAUAGCGCCAACGUCCUCAACCUCCAAUGCAUCCCACCACAUGAUGAUCCCUGAAGAGCCUUGGUUUUUUG [C12U G57A G63A G113C] | -5.3 |
| GACCAAUCUGCCCUCAGAGCUCGAGAACAUCUUCGGAUGCACAGGAGGCAGGCUUCGGUGGCGCGAUAGCGCCAACGUCCUCAAGCUCCAAUGCAUCCCACCACAUGAUGAUGCCUGAAGAGCCUUGGUUUUUUG [G42C C85G] | -3.39 |
| GACCAAUCUGCCCUGAGAGCUCGAGAACAUCUUCGGAUGCAGAGGAGGCAGGCUUCGGUGGCGCGAUAGCGCCAAGGUCCUCAACCUCCAAUGCAUCCCAACACAUGAUGAUGCCUGAAGAGCCUUGGUUUUUUG [C15G C76G C101A] | -3.53 |
| GACCAAUCUGCCCUCAGAGUUCGAGAACAUCUUCGGAUGCAGAGGAGGCAGGCUUCGGUGGCGCGAUAGCGCCAACGUCCUCAACCUCCAAUGCAUCCCACCACAUGAUGAUGCCUAAAGAGCCUUGGUUUUUUG [C20U G117A] | -2.72 |
| GACCAAUCUGCGCUCAGAGCUCGAGAACAUCUUCGGAUGCAGAUGACGCAGGCUUCGCUGGCGCGAUAGCGCCAACGUCCUCAACCUCCAAUGCAUCCCACCACAUGAUGAUGCCAGAAGAGCCUUGGUUUUUUG [C12G G44U G47C G58C U116A] | -5.59 |
| GACCAAUCUGCCCUCAGAGCUCGAGAACAUCUUCGGAUGCAGAGGAGGCAGGCUUCGGUGCCGCGAUAGCGCCAACGUCUUCAACCUCCAAUGCAUCCCACCACAUGAUGAUGCCUGAAGAGCCUUGGUUUUUUG [G61C C80U] | -5.08 |
| GACCAAUCUGCCCUCAGAGCUGGAGAACAUCUUCGGAUGCAGAGGAGGCAGGCUUCGGUGGCUCGAUAGCGCCAACGUCCUCAACCUCCAAGGCAUCCCACCACAUGAUAAUGCCUGAAGAGCCUUGGUUUUUUG [C22G G63U U92G G110A] | -5.8 |
| GACCAACCUGCCCUCAGAGCCCGAGAACAUCUUCGGAUGCAGAGGAGGCAGGCUUCGGUGUCGCGAUAGCGCCAACGUCCUCGACCUCCAAUGCAUCCCACCACAUGAUGAUGCCUGAAAAGCCUUGGUUUUUUG [U7C U21C G61U A83G G120A] | -0.41 |
| GACCAAUCUGCACUCAGAGCUCGAGAACAUCUUCGGAUGCAGAGGAGGCAGGCUUCGGUGGCGCGAUAGCGCCAACGUCCUCAACCUGCAAUGCAUCCCACCACAUGAUGAUGCCUGAAGAGCCUUGUAUUUUUG [C12A C88G G128U U129A] | -4.77 |
| GACCAAUCUGCCCUCAGAGCUCGAGAACAUCUUCGGAUGCAGAGGAGGCAGGCUUCGGUGGCGCGAUAGCACCAACGUCCUCAACCUCCAAUGUAUCCCACAACAUGAUGAGGCCUGAAAAGCCUUGGUUUUUUG [G71A C94U C102A U112G G120A] | -4.87 |
| GACCAAUCUGCCCUCAGAGCUCGAGAACAUCUUCGGAUGCAGAGGAAGCAGGCUUCGGUGGCGCGAUAGCGCGAACGUCCUCAACCUCCAAUGCAUCCCACCACAUGAUGAUGCCUGAAGAGCCAUGAUUUUUUG [G47A C73G U125A G128A] | -3.1 |
| GACCAAUCUGCCCUCAGAGCUCGAGAACAUCUUCGGAUGCAGAGGAGGCAGGCUUCGGUGGCGCGAUAGCGCCAACGUCCUCAACCUCCAAUGCAUCCCACCACAUGAUGAUGCCUGAUUAGCCUUGGUUUUUUG [A119U G120U] | -0.548 |
| GACCAAUCUGCUCUCAUAGCUCGAGAACAUCUUCGGAUGCAGAGGAGGCGGGCUUCGGUGGCUCGAUAGCGCCAACGUCCUCAACCUCCAAUGCAUCCCACCACAUGAUGAUGCCUGAAGAGCCUUGGUUUUUUG [C12U G17U A50G G63U] | -3.39 |
| GACCAAUCUGCCCUCAGAGCUCGAGAACAUCUUCGGAUGCAGAGGAGGCAGGCUUCGGUGGCGCGAUAGCGCCAACGACCUCAACCUCCAAUGCAUCCCACCAAAUGAUGAUGCCUGAAGAGCCUUGGUUUUUUG [U78A C104A] | -1.8 |
| GACCAAUCUGCCCUCAGAGCUCGAGAACAUCUUCGGAUGCAGAGGAGGCAGGUUUCGGUGGCGCGAUAGCGCCAACGUCCUCAACCUCCAAUGCAUCCCACCACAUGAUGAUGCCUUAAGAGCCUUGGUUUUUUG [C53U G117U] | -2.22 |
| GACCCAUCUGCCCUCAGAGCUCGAGAACAUCUUCGGAUGCAGAGGAGGCAGGCUUCGGUGGCGCGAUACCGCCAACGUCCUCAACCUCCAAUGCAUCCCACCACAUGAUGAUGCCUGAAGAGCCUUGGUUUUUUG [A5C G69C] | -1.74 |
| GACUAAUCUGCCCUCAGAGCUCGAGAACAUCUUCGGAUGCAGAGGAGGCAGGCUUCGGUGGCGCGAUAGCACCAACAUCCUCAACCUCCAAUGCAUCCCACCACAUGAUGAUGCCUGAAGAGCCUUGGUUUUUUG [C4U G71A G77A] | -2.96 |
| GAUCAAUCUGCCCUCAGAGGUCGAGAACAUCUUCGGAUGCAGAGGAGGCAGGAUUCGGUGGCGCGAUAGCGCCAACGUCCUCAACCUCCAAUGCAUUCCACCACAUGAAGAUGCCUGAAGAGCCUUGGUUUUUUG [C3U C20G C53A C97U U109A] | -3.06 |
| GACCAAUCUGCCCUCAGAGCUUGAGAACAUCUUCGGAUGCUGAGGAGGCAGGUUUUGGUGUCGCGAUAGCGCCAACGUCCUCAACCUCCAAUGCAUCCCACCACAUGAUUAUGCCUGAAGCGCCUUGGUUUUUUG [C22U A41U C53U C56U G61U G110U A121C] | -7.42 |
| GACCAAUCUGCCCUCAGAGCUCGAGAACAUCUUCGGAUGCAGAGGAGGUAGGCUUCGGUGGCGCGAUAGCGCCAACGUCCUCAACCUCCAAUGCAUCCCACCACAUGAUGAUGCCUGAAGAGUCUUGGUUUUUUG [C49U C123U] | 1.01 |

| Variant | polymerase ribozyme fitness (log ratio) |
| --- | --- |
| GACCAAUCUUCCCUCAGAGCUCGAGAACAUCUUCGGAUGCAGAGGAGGCAGGCUUCGGUGGCCCGAUAGCGCCAACGUCCUCAACCUCCAAUGCAUCCCACCACAUGAUGAUGCCUGAAGAGCCUUGGUUUUUUG [G10U G63C] | -0.933 |
| GACCAAUCUGCCCUCACAGCUCGAGAACAUCUUCGGAUGCAGAGGAGGCAGGCUUCGGUGGCGCGAUAGCGCCAACGUCCUCAACCUCCAAUGCAUCCCACCACAUGAUGAUGCCUGAAGAGCCUUGGUUUUUUG [G17C] | -3.67 |
| GACCAAUCUGCCCUCAGAGCUCGAGAACAUCUUCGGAUGCAGAGGAGGCAGGCUUUGGUGGCGCGAUAUCGCCAACGUCCUCAACCUCCAAUGCAUCCCACCACAUGAUGAUGCCUGAAGAGCCUUGGUUUUUUG [C56U G69U] | -1.78 |
| GACCAAUCUGCCCUCAGAGCUCGAGAACAUCUUCGGCUGCACAGGAGGCAGGCUUCGGUGGCGCGAUAGCGCCAACGUCCUCAACCUCCAAUGCAUCCCACCACAUGAUGAUGCCUGAAGAACCUUGGUUUUUUG [A37C G42C G122A] | -2.78 |
| GACCAAUCUGCACUCAGAGCUCGAGAACAUCUUCGGAUGCAGAGGAGGCAGGCUUCGGUGGCGCGAUAGCGCCAACGUCCUCAUCCUCCAAUGCAUCCCACCACAUGAUAAUGUCUGAAGAGCCUUGGUUUUUUG [C12A A84U G110A C114U] | -5.31 |
| GACCAAUCUGCCCUGAGAGCUCGAGAACAUCUUCGGAUGCAGAGGAGGCAGGCUUCGGUGGUGCGAUAGCGCCAACGUCCUCAACCUCCGAUGCAUCCCACCACAUGAUGAUGCCUGAAGAGCCUAGGUUUUUUG [C15G C62U A90G U126A] | -3.64 |
| GACCAAUCGGCCCUCAGAGCUCAAGAACAUUUUCGGAAGCAGAGGAGGCAGGCUUCGGUGGCGCGAUAGCGCCAACGUCCUCAACCUCCAAUGCAUCCCACCAAAUGAUGAAGCCUGAAGCGCCUGGGUUUUUUG [U9G G23A C31U U38A C104A U112A A121C U126G] | -6.73 |
| GACCAAUCUGCCCUCAGAGCUCGAGAACAUCUUCGGAUGCAGAGGAGGCAGGCUUCGGUGGCGCGAUAGCGCCAACGCCGUCAACCUCCAAUGCAUCCCACCACAUGAUGAUGCCUGAAGAGCCUUGGUUUUUUG [U78C C80G] | -4.13 |
| GACCAAUCUGCCCUCAGAGCUCGAGAACAUCUUCGGAUGCAGAGGCGGCAGGCUUCGGUGGGGCGAUAGCGCCAACGUCCUCAACCUCCAAUGCAUCCCACCACAUGAUGAUGCCUGAAGAGCCUUGGUUUUUUG [A46C C62G] | -2.43 |
| GACCAAUCUGCCCUCAGAGCUCGAGAAUAUCUUCGGAUGCAGAGGAGGCAGGCUUCGGUGGCGCGAUAGCGCCAACGUCCUCAACCUCCAAUGCAUCCCACCACAUGAUGAUGCCUGAAGUGCCUUGGUUUUUUG [C28U A121U] | 0.361 |
| GACCAAUCUGCCCUCAGAGCUCGAGAACAUCUUCGGAUGCAGAGGAGGCAGGCUUCGGUGGCGCGAUAGCGCCAACGUCCUCAACCUCCAAUGCAUCCCACCACAUGAUCAUGCCUGAAGAGCCUUUGUUUUUUG [G110C G127U] | -2.52 |
| GACCAAUCUGCCCUCAGAGCUCGACAACAUCUUCGUAUGCAGAGGAGGCAGGCUUCGGUGGCGCGAUAGCGCCAACGUCCUCAACCACCAAUGCAUCCCACCACAUGGUGAUGCCUGAAAAGCCUUGGUUUUUUC [G25C G36U U87A A108G G120A G135C] | -5.8 |
| GACCAAUCUGCCCUCAGAGCUCGAGAACAUCUUCGGAUGCAGAGGAGGCAGGCUGCGGUGGCGCGAUAGCGACAACGUCCUCAACCUCCAAUGCAUCCCACCACAGGAUGAUUCCUGAAGAGCCUUGGUUUUAUG [U55G C72A U106G G113U U133A] | -5.76 |
| GACCAAUCUGACCUCAGAGCUCGAGAACAUCUUCGGGUGCAGAGGAGGCAGGCUUCGGAGGCGCGAUAGCGCCAACGUCCUCAACCUCCAAUGCAUCCCACCACAUGAUGAUGCCUGAAGAGCCUUGGUUCUUUG [C11A A37G U59A U131C] | -1.86 |
| GACCAAUCAGCUCUCAGAGCUCGAGAACAUCUUCGGGUGCAGAGGAGGCAGGCUUCGGUGGCGCGAUAGCGCCAACGUCCUCAACCUCCAAUGCAUCCCACCACAUGAUGAUGCCUGAAGAGCCUUGGUUUUUUG [U9A C12U A37G] | -0.0422 |
| GACCAAUCUGCCCUCAGUGCUCGAGAAAAUCUUCGGAUGCAGAGGAGGCAGGCUUCGGUGGCGCGAUAGCGCCAACGUCCUCAAGCUCCAAUGCAUCCCACCACAUGAUGUUGCCUGAAGAGCCUUGGUUUUUUG [A18U C28A C85G A111U] | -4.7 |
| GACCAAUCUGCCCUCAGAGCUCGAGAACAUCUUAGGAUGCAGAGGAGGCAGGCUUCGGUGGCGCGAUAGCGCCAACGUCCUCCACCUCCAAUGCAUCCCACCACAUGAUGAUGCCUGAAGAGCCUUGGUUUUUUG [C34A A83C] | -3.65 |
| GACCAAUCUGCCAUCAGAGCUCGAGAACAUCAUCGGAUGCAGAGGAGGCAGGGUUCGGUGGCGCGAUAGCGCCAACGUCCUCAACCUCCAAUGCAUCCCACCACAUGAUGAUGCCUGAAGAGCCUUGGUUUUUUG [C13A U32A C53G] | -6.04 |
| GACCAAUGUGCCCUCAGAGCUCGAGAACAUCUUCGGAUGCAGAGGAGGCAGGCUUCGGUGGCGCGAUAGCGCCAACGUCCUCAACCUCAAAUGCAUCCCACCACAUGAUGAUGCCUGAAGAGCCUUGGUUUUUUG [C8G C89A] | -1.01 |
| GACCAAUCUGCCCUCAGAGCUCGAGAACAUCUUCGGAUGCAGAGGAGGCAGGCUUCGGUGGCGCGAUAGCGCCAACGUCCUCAAACUCCAAUGUAUCCCACCACAUGAUGACGCCUGAAGAGCCUUGGUUUUUUG [C85A C94U U112C] | 0.116 |
| GACCAAUCUGCCCUCAGAGCUCGAGAAUAUCUUCGGAUGCAGAGGAUGCAGGCUUUGGUGGCGCGAUAGCGCCAACGUCCUCAACCUCCAAUGCAUCCCACCACAUGAUGAUGCCUGAAGAGCCUUGGUUUUUUG [C28U G47U C56U] | -3.24 |
